Experimental findings from the supplement of paper PMC5998384 are described below.

In data set [1] the test system is HeLa Kyoto. In words: solubility in G1/S (NP-40 vs SDS abundance) (log2 ratio); higher = more soluble. To be noted: cell cycle stage: G1/S.
Data set [2] relates to HeLa Kyoto. In words: thermal stability score vs G1/S (z-score of summed log2 fold changes over temperatures); higher = more thermally stable than in G1/S.
Data set [3] deals with HeLa Kyoto. The data set is described as follows: melting temperature (median over replicates), in situ; higher = more thermally stable.
For data set [4], the system named is HeLa Kyoto. The data set is described as follows: solubility change mitosis vs G1/S (difference of NP-40 vs SDS log2 ratios) (log2 ratio difference); higher = more soluble in mitosis.
Where [5] appears, read: cell cycle stage: early G1 (4.5 h after nocodazole release).
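Wherever melting temperature (median over replicates), in situ is given: HeLa Kyoto cells synchronized by double thymidine or nocodazole block, proteins quantified by TMT10plex mass spectrometry, three independent biological replicates.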
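Wherever solubility change mitosis vs G1/S (difference of NP-40 vs SDS log2 ratios) is given: synchronized HeLa Kyoto cells (double thymidine block for G1/S, nocodazole release for mitosis), protein amounts in NP-40 versus SDS lysates quantified by mass spectrometry, three biological replicates.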
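Wherever solubility in G1/S (NP-40 vs SDS abundance) is given: HeLa Kyoto cells arrested at G1/S by double thymidine block, proteins quantified by TMT10plex mass spectrometry in mild NP-40 versus SDS extracts, three biological replicates.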
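Wherever thermal stability score vs G1/S (z-score of summed log2 fold changes over temperatures) is given: synchronized HeLa Kyoto cells, proteins quantified by TMT10plex mass spectrometry, three biological replicates, mitosis taken 0.5 h after nocodazole release, G1/S directly after double thymidine block.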

Consider “MFAKAFRVKSNTAIKGSDRRKLRADVTTAFPTLGTDQVSELVPGKEELNIVKLYAHKGDAVTVYVSGGNPILFELEKNLYPTVYTLWSYPDLLPTFTTWPLVLEKLVGGADLMLPGLVMPPAGLPQVQKGDLCAISLVGNRAPVAIGVAAMSTAEMLTSGLKGRGFSVLHTYQDHLWRSGNKSSPPSIAPLALDSADLSEEKGSVQMDSTLQGDMRHMTLEGEEENGEVHQAREDKSLSEAPEDTSTRGLNQDSTDSKTLQEQMDELLQQCFLHALKCRVKKADLPLLTSTFLGSHMFSCCPEGRQLDIKKSSYKKLSKFLQQMQQEQIIQVKELSKGVESIVAVDWKHPRITSFVIPEPSPTSQTIQEGSREQPYHPPDIKPLYCVPASMTLLFQESGHKKGSFLEGSEVRTIVINYAKKNDLVDADNKNLVRLDPILCDCILEKNEQHTVMKLPWDSLLTRCLEKLQPAYQVTLPGQEPIVKKGRICPIDITLAQRASNKKVTVVRNLEAYGLDPYSVAAILQQRCQASTTVNPAPGAKDSLQVQIQGNQVHHLGWLLLEEYQLPRKHIQGLEKALKPGKKK [EIF2D]”, for which the “solubility in G1/S (log2)” value in the data set with HeLa Kyoto [1] was 0.234. Further, the thermal stability score in the data set on HeLa Kyoto [2] (setting [5]) was determined as 0.861; in the data set with HeLa Kyoto [2] (cell cycle stage: mitosis), 1.5. Also, the melting temperature in the data set on HeLa Kyoto [3] (cell cycle stage: G1/S) and with HeLa Kyoto [3] (cell cycle stage: mitosis) was 48.3 °C each time. Also, the “solubility change mitosis (log2)” value in the data set on HeLa Kyoto [4] is -0.0853.
Consider “MFAKATRNFLREVDADGDLIAVSNLNDSDKLQLLSLVTKKKRFWCWQRPKYQFLSLTLGDVLIEDQFPSPVVVESDFVKYEGKFANHVSGTLETALGKVKLNLGGSSRVESQSSFGTLRKQEVDLQQLIRDSAERTINLRNPVLQQVLEGRNEVLCVLTQKITTMQKCVISEHMQVEEKCGGIVGIQTKTVQVSATEDGNVTKDSNVVLEIPAATTIAYGVIELYVKLDGQFEFCLLRGKQGGFENKKRIDSVYLDPLVFREFAFIDMPDAAHGISSQDGPLSVLKQATLLLERNFHPFAELPEPQQTALSDIFQAVLFDDELLMVLEPVCDDLVSGLSPTVAVLGELKPRQQQDLVAFLQLVGCSLQGGCPGPEDAGSKQLFMTAYFLVSALAEMPDSAAALLGTCCKLQIIPTLCHLLRALSDDGVSDLEDPTLTPLKDTERFGIVQRLFASADISLERLKSSVKAVILKDSKVFPLLLCITLNGLCALGREHS [DFNA5]”, for which the “solubility in G1/S (log2)” value with HeLa Kyoto [1] was -0.0213. In addition, the thermal stability score in the data set with HeLa Kyoto [2] (setting [5]) was 1.33; in the data set with HeLa Kyoto [2] (cell cycle stage: mitosis) it was 2.07. The melting temperature in the data set on HeLa Kyoto [3] (cell cycle stage: G1/S) was found to be 52.8 °C; in the data set on HeLa Kyoto [3] (cell cycle stage: mitosis), 53.7 °C. In addition, the “solubility change mitosis (log2)” value in the data set with HeLa Kyoto [4] was -0.126.
On to “MFCEKAMELIRELHRAPEGQLPAFNEDGLRQVLEEMKALYEQNQSDVNEAKSGGRSDLIPTIKFRHCSLLRNRRCTVAYLYDRLLRIRALRWEYGSVLPNALRFHMAAEEMEWFNNYKRSLATYMRSLGGDEGLDITQDMKPPKSLYIEVRCLKDYGEFEVDDGTSVLLKKNSQHFLPRWKCEQLIRQGVLEHILS [GINS1]”, for which the “solubility in G1/S (log2)” value in the data set on HeLa Kyoto [1] was -0.0577. In addition, the thermal stability score in the data set on HeLa Kyoto [2] (setting [5]) is -0.0841; in the data set with HeLa Kyoto [2] (cell cycle stage: mitosis), -0.424. Besides, the melting temperature came out at 52.5 °C in the data set with HeLa Kyoto [3] (cell cycle stage: G1/S) and 51.7 °C in the data set with HeLa Kyoto [3] (cell cycle stage: mitosis). For the same sequence, the “solubility change mitosis (log2)” value in the data set with HeLa Kyoto [4] was -0.00378.
For “MFGPAKGRHFGVHPAPGFPGGVSQQAAGTKAGPAGAWPVGSRTDTMWRLRCKAKDGTHVLQGLSSRTRVRELQGQIAAITGIAPGGQRILVGYPPECLDLSNGDTILEDLPIQSGDMLIIEEDQTRPRSSPAFTKRGASSYVRETLPVLTRTVVPADNSCLFTSVYYVVEGGVLNPACAPEMRRLIAQIVASDPDFYSEAILGKTNQEYCDWIKRDDTWGGAIEISILSKFYQCEICVVDTQTVRIDRFGEDAGYTKRVLLIYDGIHYDPLQRNFPDPDTPPLTIFSSNDDIVLVQALELADEARRRRQFTDVNRFTLRCMVCQKGLTGQAEAREHAKETGHTNFGEV [YOD1]”, in the data set on HeLa Kyoto [1], the “solubility in G1/S (log2)” value turned out to be 0.0787. In addition, the thermal stability score with HeLa Kyoto [2] (setting [5]) was 0.646; with HeLa Kyoto [2] (cell cycle stage: mitosis) it was 1.06. Further, the melting temperature in the data set on HeLa Kyoto [3] (cell cycle stage: G1/S) and in the data set on HeLa Kyoto [3] (cell cycle stage: mitosis) was 50.2 °C in each case. Also, the “solubility change mitosis (log2)” value with HeLa Kyoto [4] stood at 0.0334.
“MFGRSRSWVGGGHGKTSRNIHSLDHLKYLYHVLTKNTTVTEQNRNLLVETIRSITEILIWGDQNDSSVFDFFLEKNMFVFFLNILRQKSGRYVCVQLLQTLNILFENISHETSLYYLLSNNYVNSIIVHKFDFSDEEIMAYYISFLKTLSLKLNNHTVHFFYNEHTNDFALYTEAIKFFNHPESMVRIAVRTITLNVYKVSLDNQAMLHYIRDKTAVPYFSNLVWFIGSHVIELDDCVQTDEEHRNRGKLSDLVAEHLDHLHYLNDILIINCEFLNDVLTDHLLNRLFLPLYVYSLENQDKGGERPKISLPVSLYLLSQVFLIIHHAPLVNSLAEVILNGDLSEMYAKTEQDIQRSSAKPSIRCFIKPTETLERSLEMNKHKGKRRVQKRPNYKNVGEEEDEEKGPTEDAQEDAEKAKGTEGGSKGIKTSGESEEIEMVIMERSKLSELAASTSVQEQNTTDEEKSAAATCSESTQWSRPFLDMVYHALDSPDDDYHALFVLCLLYAMSHNKGMDPEKLERIQLPVPNAAEKTTYNHPLAERLIRIMNNAAQPDGKIRLATLELSCLLLKQQVLMSAGCIMKDVHLACLEGAREESVHLVRHFYKGEDIFLDMFEDEYRSMTMKPMNVEYLMMDASILLPPTGTPLTGIDFVKRLPCGDVEKTRRAIRVFFMLRSLSLQLRGEPETQLPLTREEDLIKTDDVLDLNNSDLIACTVITKDGGMVQRFLAVDIYQMSLVEPDVSRLGWGVVKFAGLLQDMQVTGVEDDSRALNITIHKPASSPHSKPFPILQATFIFSDHIRCIIAKQRLAKGRIQARRMKMQRIAALLDLPIQPTTEVLGFGLGSSTSTQHLPFRFYDQGRRGSSDPTVQRSVFASVDKVPGFAVAQCINQHSSPSLSSQSPPSASGSPSGSGSTSHCDSGGTSSSSTPSTAQSPADAPMSPELPKPHLPDQLVIVNETEADSKPSKNVARSAAVETASLSPSLVPARQPTISLLCEDTADTLSVESLTLVPPVDPHSLRSLTGMPPLSTPAAACTEPVGEEAACAEPVGTAED [CLEC16A]”: in the data set on HeLa Kyoto [1], the “solubility in G1/S (log2)” value is -0.224. Moreover, the values for the thermal stability score in the data set on HeLa Kyoto [2] (setting [5]) and in the data set with HeLa Kyoto [2] (cell cycle stage: mitosis) were -1.42 and -1.87, respectively. The melting temperature was found to be 55.7 °C in the data set on HeLa Kyoto [3] (cell cycle stage: G1/S) and 57.4 °C with HeLa Kyoto [3] (cell cycle stage: mitosis). Moreover, in the data set on HeLa Kyoto [4], the “solubility change mitosis (log2)” value was -0.241.
